The data set in a line: label from the status in PepcDB records.

Regarding “MKISVPTYPFARERYWISVPEMKTSTVNHILHPLVHRNTSDFTEQRFSSVFTGTEFFLSDHVVQGQKILPGVAYLEMAREAAEKAAGDLDGEQRVVSLKDIVWVRPITIESEPKEIHIGLFPEDNGDISFDIYSSSEHKEEALTIHCQGRAVISDEAETSILNLSSIQTECSLDTVTSEQCYAAFRKIGLDYGEGYQGIEKVYVGKDQLLAKISLPAFLKNDKQHFALHPSLMDSAFHATVGFIVSSVNAAGQAQTLSLPFALQEVDIFSPCPEKIWSYIRYSSDSLEHHHHHH”, the protein production result was “failed”. With “MKITDISGKIETLVDSLRDMSPTRVRSSFSDEHVSENDDERSSWIALHPSALDMFEQIMRDAEGKQIIMFLDYDGTLSLITEDHDRAYITDEMREVVKEVATYFKTAIISGRSTDKVQSFVKLTGIHYAGSHGMDIKGPTNTDQSNQEEVMFQPASDYLPMIDEVVNVLKEKTKSIPGATVEHNKFCLTVHFRRVDETGWAALAEQVRLVLIDYPKLRLTQGRKVLELRPSIKWDKGKALEFLLNSLGIAESKDVLPVYIGDDRTDEDAFKVLCERGQGFGIIVSKTIKETYASYSLQDPSQVKEFLERLVKWKKQTLGE” the entry was “failed”; with “MKITLIIPTYNAGSIWPNVLDAIKQQTIYPDKLIVIDSGSKDETVLLASDLKNISIFNIDSKDFNHGGTRNLAVTKTLDADVIIFLTQDAILADSDAIKNLVYYFSDPLIAAVCGRQLPHKDANPLAVHARNFNYSSKSIVKSKADIEKFGIKTVFMSNSFAAYRRSVFEELSGFPEHTILAEDMFMAAKMIQAGYKVAYCAEAVVRHSHNYTPREEFQRYFDTGVFHACSPWIQRDLGGAGGEGFRFVKSEIQFLLKNAPFWIPRALLTTFAKFLGYKLGKHWQSLPLSTCRYFSMYKSYWNNIQYSSSKEIKLEHHHHHH”, “failed”; with “MKIVVNNQSTLAAELMIVAQENLQKLVEQTKCPNSKALLDRRIFKAKSGEVLPLLHGDKIVILLGLGLRQDFIASEYDKIIAKAAEQLKKLAIKEISVDIDYAFENDNVKQFTLDTVRALISETYVFDQLKTEKENYSLEQIELVYSGDQDIEDSAKIGSAIACGQNYAKDLQNLPANICTTDYMLNEARELTSKYATFSLDYLDQDAMAELGMGCALAVGRGSYMSNYTVCMEYKGGNEGDAPIVLVGKGLVFDNGGICIKQAAGMDSMKMDMGGVAAVMGTMKAIAMLNLPVNVVGVMGLAENAVDARSYRPGDVLKSMKGITVEVSNTDAEGRLVLCDTLTYIGKYKPKAVIDLATLTGAMIISLGDAYSGMFANSDKLANSLEQAANASNDLIWRLPLHKPYLKKIESKVADMDNCGRDRSAGSIVAALFLSKFTEDYEWAHLDIAGSAMGDFASCKASGRPVPLLVHYLISQAK”, “not failed”. With “MKIWTSEHVFDHPWETVTTAAMQKYPNPMNPSVVGVDVLDRHIDPSGKLHSHRLLSTEWGLPSIVKSLIGAARTKTYVQEHSVVDPVEKTMELKSTNISFTNMVSVDERLIYKPHPQDPEKTVLTQEAIITVKGVSLSSYLEGLMASTISSNASKGREAMEWVIHKLNAEIEELTASARGTIRTPMAAAAFAEK” the entry was “failed”; with “MKIYHKFLLYQNKLLKPYVRILLGLVEALTYLASLLLIVGVVYEHGFPLSPVEVQQIQILYKAVWIIFLIDVTLHISLEYRNTKKQYRRLAWILSVLLYLTLVPVIFHRPEEEGAILQVWEFLHGKFYHLILLLVFSLLNLSNGLVRLLGRRTNPSLILAVSFMAIILIGTGLLMLPRCTVNGITWVDSLFTATSAVCVTGLVPVDVSTTFTTSGLVVIILLIQIGGLGVMTLTSFFAMFFMGNTSIYNQLVVRDMVSSNSLGSLLSTLLYILGFTLVIEGIGMVSIWFSIHDTLGMNLEEELAFAAFHSISAFCNAGFSTLSGNLGNSMVMTNHNWLFISVSLLIILGGIGFPILVNFKDIVLYHLRHVWTFVRTRKLERHKMPHLYNLNTKIVLIMTFLLLLIGTLAILAFEWNASFAGMSVADKWTQAFFNATCPRTAGFSSVDLASLSVQTLLVYLFLMWVGGGSQSTAGGVKVNAFAVVVLNLVAVLRGSERVEVFGRELSHDSIRRSNATVVMSLGVLFLFIFILSILEPKASLLALTFECVSALSTVGSSLNLTPQLCDASKLLVSLLMFIGRVGLITLMLGIVKQKKNTKYRYPSDNIIIN”, “failed”.

For the sequence “MKIYLVGGAVRDALLGLPVKDKDWVVVGATPQEMLDAGYQQVGRDFPVFLHPQTHEEYALARTERKSGSGYTGFTCYAAPDVTLEADLQRRDLTINALARDDAGQIIDPYHGRRDLEARLLRHVSPAFGEDPLRVLRVARFAARYAHLSFRIADETLALMREMTAAGELEHLTPERVWKETENALTTRNPQVYFQVLRDCGALRVLFPEIDALFGVPAPAKWHPEIDTGVHTLMTLSMAAMLSPQLDVRFATLCHDLGKGLTPKNLWPRHHGHGPAGVKLVEQLCQRLRVPNDLRDLAKLVAEYHDLIHTFPILQPKTIVKLFDAIDAWRKPQRVEQIALTSEADVRGRTGFEASDYPQGRWLREAWQVAQAVPTKEVVEAGFKGIEIREELTKRRIAAVANWKEKRCPNPAS”, the protein production entry is on record as “failed”. Regarding “MKKALISTLFGVSLAFAKPYTIDKANSSVWFEVKHFTFNETRGAFDNFDGKIDLEPNTKMLSVFEGNIDVKSVNTRDRKRDNHLKTADFFDVVKYPKGSFKMTKYEDGKIYGDLTLRGVTKPVVLEAKIQAPLQNPMNKKEFMVLQAEGKINRKDFGIGKTFSDAVVGDEVKIELKLEAYAQ”, the protein production entry is given as “failed”. Consider “MKKCFELTPCLLAFLCITSCVEDVDNERSKGMFSASQSGFSTIEVYDLGPLNKIDLSIAKAGLEDTGGTVTFSVEQSLLDSLNNADGTSYQLLPPECYTIENATYSVSPGGDRRVTGGSLVYDPHKIYNLCGFDELKYVLPLRVSSTGTPMNSDRTATLYGFIVKEAIVRLASTGGDFVVEGGTTTSPMNLDTEISFENEWDLTTSFATKGADYVDNYNSANSTYYIPLPSDFYTLPDVTIAKGKTTGGSAISLLGETLPPGNYLLPVSLGGLSGQGDASINIDKETVANYFVIKQGGPINRDHWTVTANTEEKTGEVSAAYPHNGQTISLIDGEINTFWHSKWQGGEVAPPYEIILDMGKENSVSQLGLIARQNALTSMNLEIYAGDDGETWNLIGKYFFDGSIKTEQMVPVKACDARWIRIYIPTLGSGSSVGHLAEIYVYGTDK”, for which the protein production result is “failed”.

As to “MKKEIASHLLEIGAVFLQPNDPFTWSSGMKSPIYCDNRLTLSYPKVRQTIAAGLEELIKEHFPTVEVIAGTATAGIAHAAWVSDRMDLPMCYVRSKAKGHGKGNQIEGKAEKGQKVVVVEDLISTGGSAITCVEALREAGCEVLGIVSIFTYELEAGKEKLEAANVASYSLSDYSALTEVAAEKGIIGQAETKKLQEWRKNPADEAWITA”, the protein production result is “not failed”.

For the sequence “MKKFFKLKENKTTVRTEVLAGITTFFAMSYILFVNPSILSQTGMPSQGVFLATIIGSIAGTLMMGLYANIPYAMAPGMGLNAFFTYTVVFSLGYTWQEALAMVFICGIISIVITLTRVRRMIIDEIPDSLKKAISAGIGIFLTYIGLKNAGLLNFAIDPGTYSVSGKGAAKGLASITANSSATPSLVNFNNPAVLVAVIGIIITAFFIIKNIKGGVILSIIVTTVIALLAGVVDLSKIDFSANNPVAAVKDLGTIFGAALGNKGLGALFSDAGRIPEVLMTILAFALTDIFDNVGTLIGTGAKAGIFDVTSESTSSGLQNKMDKALFSDMVGTTVGAVAGTSNVTTFVESAAGIGAGGRTGLTAVVVALLFAVSSFFSPLLAIVPTQATAAVLLIVGIMMLSSLKDIEWSDMSQAIPAFFATVFMGLAYSITQGIATGFLFYTFSKLIKKEAKDIHPIIWVLDVLFILNFISLAVL”, the protein production entry was “failed”. With “MKKFILIMVLGSALFTGGAIYDGIDNQDMTQPTIHFWEKNPMKLNLYAKGQCTYYVFDRIRQDGNMISNRWGDAKYWANEASKEGYKVNDNPSVGSILQYPKGQHGHVAYVDKVNHDGSLTVFDMNYRKPYEVTKRTVYEYQVDEFNYIHPKKNQSENA” the entry was “failed”. With “MKKFNIKSLTLLIVLLPLIVNANNIDSHLLEQNDIAKYVAQSDTVGSFFERFSALLNYPIVVSKQAAKKRISGEFDLSNPEEMLEKLTLLVGLIWYKDGNALYIYDSGELISKVILLENISLNYLIQYLKDANLYDHRYPIRGNISDKTFYISGPPALVELVANTATLLDKQVSSIGTDKVNFGVIKLKNTFVSDRTYNMRGEDIVIPGVATVVERLLNNGKALSNRQAQNDPMPPFNITQKVSEDSNDFSFSSVTNSSILEDVSLIAYPETNSILVKGNDQQIQIIRDIITQLDIAKRHIELSLWIIDIDKSELNNLGVNWQGTASFGDSFGASFNMSSSASISTLDGNKFIASVMALNQKKKANVVSRPVILTQENIPAIFDNNRTFYVSLVGERNSSLEHVTYGTLINVIPRFSSRGQIEMSLTIEDGTGNSQSNYNYNNENTSVLPEVGRTKISTIARVPQGKSLLIGGYTHETNSNEIISIPFLSSIPVIGNVFKYKTSNISNIVRVFLIQPREIKESSYYNTAEYKSLISEREIQKTTQIIPSETTLLEDEKSLVSYLNY” the entry was “failed”. Consider “MKKFVTLLLCMLPVSLFAQVNDGIRQAMDNYDYETVVTLIEPDCQDSLLLITKAQALKAMNRYPEAIGVLNSLILKDSTNTKVLIDLAECYKLTGNSRRAANCYQKAMNLQPENKFFRLQFIRSLLASEDYEEARTACHGWLERDSLSATGYKYLGQAYEGLQDAASAFLSYNIAYRRDSLDAQTVARIAGIFNNNQQFKDAVDVTEVYRLSDTTNIDVNRQNAKAYCMLKEYGTAVKRYESLKELGDRSFLTLYYLGVSHYGDNWFYGAYDNLKEAYQKNPMDVNVLYYLAKASARTSWKKEGVEYMEEAFRIAVPSDSMMVRLYDGLVECYDYAGDTKKEVEALEKLYIYTKKNSILYKIACLYDWKEDEKNAIRYYRKYMATVSEDQRYALDEDGNPVEDRITLYQQAWKRIKKIKEEGFFRGDIPTKSFPVEKKDTLALRHAK”, for which the protein production entry was “failed”.

On to “MKKGFSALVEHNGYRVLVDTGTDGKILLNNMEGLGIDPNSIDALFLTHGHYDHTGGIAELLKARKDTLDVYAHPRIFEKRIALKPKRRDIGIPFSQEELESLGAIFHLNDKALEFLPGLISSGEIKRETWDRAVGYLLNNEKDPVRDDMALLIDLGDKIAVITGCGHSGILNIAKHAVEISKKPIRALIGGFHLRGASITILEDAVRGLKELNVEMLYPGHCTGIDEYAYLRMKLKAEHLNVGKEIVIK”, for which the protein production result was “failed”.

In the case of “MKKGRFKRNWPIILFGIIVFIFSFYFKISPKSLKNFTDIMSASLSFSAIVTAIFFASFSLIPTSGSNKLVVMMEDLGTEIKIMDRLLVATFLSFISSLLSFISLFFSKTDTDLISILVVSSWLSSTVMMFLSSFFVLRTLILLVETYNNFKNK”, the protein production result is listed as “failed”.

“MKKIVILIISVLLLGGIIGGVYYFKNANKIGADASYVKITKDPTKSNEISFNNNYTLPAYDENGKETEVTFSADKELRKGAYLKLYIKEDKGVTSFEEVPEKEVPAKAAEKLKLEHHHHHH”: the protein production entry is “failed”. Then “MKKKDMNKQVKIQDAVAAIILAEGPAGVSTTKVAKRVGIAQSNVYLYFKNKQALIDSVYARETNRILSTTDLDRLSDSTIDVTTRIRLYVQQVYDYSLANPDSLTIIQQIKALNGQGMTISAADADPNNIVANLLTAAIDAKVIKQLPVSLHMGVVFSTIHTHTTNISKGRYAQDQYTFGDIFQMIWDAMKQD”, with “not failed”.

(Values after a protein production outcome set (Wang et al. 2014).)
